The target in experiment [1] is gp140-92UG037 (recombinant Env gp140 of HIV-1 strain 92UG037) (HIV-1 clade A (92UG037)). The experiment can be described thus: SPR. Background: SPR reads the build-up and loss of mass on a sensor chip optically.
Experiment [2] shares this target.
For experiment [3] the target is unchanged. The experiment can be described thus: SPR; Biacore T100; gp140-92UG037 immobilised on CM-5; single concentration injections of 100 nM VHH for 60 s; two-state reaction fit.
The target of experiment [4] is gp41INT (soluble form of the fusion intermediate conformation of gp41) (not stated | HIV-1). Briefly: SPR; Biacore 3000; gp41INT or gp41 528-683 immobilised to 1000 RU on CM-5; VHH injected 1 to 200 nM for 150 s; 10 mM HEPES, 150 mM NaCl, pH 7.4, 50 uM EDTA, 0.005% P-20; 1:1 Langmuir fit, or separate association and dissociation fits for 2H10 and 2H10-W100A on gp41INT.

Experiment [5] concerns the target gp140-92UG037 (recombinant Env gp140 of HIV-1 strain 92UG037) (HIV-1 clade A (92UG037)). The experiment can be described thus: SPR; Biacore T100; gp140-92UG037 immobilised to 1500 RU on CM-5; VHH injected at 6.25, 25, 100 and 400 nM for 60 s; 10 mM HEPES, 150 mM NaCl, pH 7.4, 0.005% Tween-20; two-state reaction fit (2H10), heterogeneous ligand and two-state fits (bi-2H10).

For experiment [6], the target named is gp41 528-683 (potential late fusion intermediate conformation of gp41) (HIV-1) (UniProt P04578). Briefly: SPR; Biacore 3000; […]; 10 mM HEPES, 150 mM NaCl, […]; 1:1 Langmuir fit, […].
Experiment [7] deals with T1, linear gp41 MPER peptide 655KNEQELLELDKWASL669 (HIV-1 clade B (HXB2 sequence)).
T1 chain: KNEQELLELDKWASL
Briefly: ITC; 25 C; 10 uM 2H10 in the cell, about 100 uM peptide in the syringe; 20 mM HEPES pH 7.4, 100 mM NaCl; single binding site model. The conditions noted are these: both partners purified. A general note: In ITC the heat of successive injections is recorded.

The target of experiment [8] is T2, gp41CHRTM (HIV-1 gp41 C-terminal heptad repeat, MPER and transmembrane regions) (HIV-1 clade B (HXB2), UniProt P04578).
T2 construct: also called gp41 proteoliposomes; gp41CHRTM proteoliposomes
Briefly: ELISA. The conditions noted are these: both partners purified.

For 2H10-S29F (VHH), in experiment [1], the Kd worked out at 5.5 nM.
Take “bi-2H10 with 17GS linker (bivalent 2H10) (VHH)”: the IC50 of neutralisation of HIV-1 92UG037.A9 (molecular clone) in TZM-bl cells in experiment [2] is 28 µg/mL.
For the molecule “2H10 (llama anti-gp41 MPER VHH, monovalent, myc/His-tagged)”, the values for the Kd in experiment [3], in experiment [4] and in experiment [5] were 8 nM, 29 nM and 4 nM, respectively. The IC50 of neutralisation of HIV-1 92UG037.A9 (molecular clone) in TZM-bl cells in experiment [2] was more than 50 µg/mL. In experiment [2], the IC50 of neutralisation of pseudovirus 92UG0378 in TZM-bl cells was more than 50 µg/mL.
Turning to 2H10-W100A (VHH), the Kd in experiment [1] was 10.1 nM.
As to “bi-2H10 with 15GS linker (bivalent 2H10) (VHH)”, the dissociation constant (Kd) turned out to be 1.1 nM in experiment [6], 2.5 nM in experiment [4] and 0.15 nM in experiment [5]. Besides, the IC50 of neutralisation of HIV-1 92UG037.A9 (molecular clone) in TZM-bl cells in experiment [2] worked out at 2.4 µg/mL. In experiment [2], the IC50 of neutralisation of pseudovirus 92UG0378 in TZM-bl cells amounted to 4.66 µg/mL.
Consider 2H10-R71S (VHH), for which the dissociation constant Kd in experiment [1] stood at 18.7 nM.

B1: 2H10 (VHH without 6his-tag or myc tag) (VHH)
VHH: EVQLVESGGGLVQPGGSLRLSCAASGSISSVDVMSWYRQAPGKQRELVAFITDRGRTNYKVSVKGRFTISRDNSKNMVYLQMNSLKPEDTADYLCRAESRTSWSSPSPLDVWGRGTQVTVSS
With B1, the Kd in experiment [7] worked out at 35 nM.

B2: 2H10 (llama anti-gp41 MPER VHH, monovalent, myc/His-tagged) (VHH)
VHH: EVQLVESGGGLVQPGGSLRLSCAASGSISSVDVMSWYRQAPGKQRELVAFITDRGRTNYKVSVKGRFTISRDNSKNMVYLQMNSLKPEDTADYLCRAESRTSWSSPSPLDVWGRGTQVTVSS
notes: also called 2H10 monohead; VHH 2H10
B2: the binding result in experiment [8] is “binds”.

The Kd is the equilibrium constant for the complex coming apart.

The values are drawn from paper PMC3591319 (PLoS Pathogens, 2013).
